The values below come from patent US20220011297A1, “METHOD FOR PREDICTING EFFECT OF IMMUNE CHECKPOINT INHIBITOR” (NAGASAKI UNIVERSITY, priority 2018, published 2022).

For the data set, the system named is lung cancer patients. Put plainly: Multicenter study of nivolumab in lung cancer patients: adverse events (interstitial pneumonia).

Description: Multicenter study ([sequence] University Hospital, Nagasaki Genbaku Hospital) [Subjects] Lung cancer patients [Selection criteria]
Employed were patients who had been histologically confirmed to have lung cancer through computed tomography (any T, any N, and M1, stage IV), and
who were 20 to 75 years old with performance status (PS) of 0 and retaining the functions of main tissues, met the study criteria of our institution, and voluntarily submitted a consent form to participate in the study after receiving explanation on the characteristics of the study.
This blood collection is performed concomitantly with regular blood collection during hospitalization, and no additional puncture is performed for the blood collection.

In the case of “nivolumab: human-type anti-PD-1 monoclonal antibody”, the “interstitial pneumonia with DAD (diffuse alveolar damage), acute exacerbation” value (13 lung cancer patients given nivolumab, other two cases OP) was “TR01 and TR02 were presenting with DAD”. Moreover, the death result (among DAD cases, in spite of discontinuation of administration) is “one case resulted in death”.
